For orientation: EC50 means the concentration needed to bring the measured effect to its halfway point. The low end stands for greater potency, the high end for weaker potency. By IC50 is commonly meant the concentration that inhibits the measured activity by half. Low readings indicate inhibition by little substance, high ones a need for much substance. As usually defined, the EC50 (read off the curve) is the concentration needed to bring the measured effect to its halfway point. Higher therefore signals a less potent agent. By Kd is commonly meant a measure of binding affinity in units of concentration. A low value points to tighter binding.

These results are taken from patent US20200247886A1 (ZLIP, published 2020).

Assay [1] deals with T1, human CD47 expressed on cells (CD47 expressing CHO cells, Jurkat, HL60, DLD1, Raji) (human, UniProt Q08722 19-292).
T1 construct: also called CHO-CD47; IAP
The assay can be described thus: EC50 (nM) as grade, binding on Jurkat cells; legend +++: >0.05 nM and <1 nM.

The target of assay [2] is T2, human CD47-Fc protein (Novoprotein, Cat#CG18) (human, UniProt Q08722 19-139).
T2 construct: Bought protein; also called CD47-hFc; hCD47-hFc fusion protein; not shown: human IgG Fc of the bought fusion protein
The assay can be described thus: IC50 (nM) as grade, neutralizing ELISA, CD47-hFc on SIRPα coated plate; legend ++++: <8 nM. In general terms: An ELISA detects its analyte on a solid surface through an enzyme-linked reagent.

Assay [3] addresses T1, human CD47 expressed on cells (CD47 …). The assay can be described thus: EC50 (nM) as grade, binding on CHO-CD47 cells; legend +++: >0.05 nM and <1 nM.
For assay [4], the target named is T3, CD47 protein (construct not stated; SPR antigen, CD47 coated ELISA plates) (Homo sapiens (Human), UniProt Q08722 19-139, limits assumed).
T3 construct: also called the antigen
The assay is described as follows: SPR (Biacore T100), affinity (nM) as grade; legend +: >10 nM and <40 nM. For orientation: SPR reads the build-up and loss of mass on a sensor chip optically.

For assay [5], the target named is T2, human CD47-Fc protein (Novoprotein, …). The assay is described as follows: IC50 (nM) as grade, blocking of soluble CD47 binding to SIRPα-expressing CHO cells; legend ++: >1 nM and <10 nM.
Assay [6] deals with T4, CHO/mCD47-GFP (mouse, UniProt Q61735).
T4 construct: on the cell surface; also called mouse CD47 expressed on CHO cells; CHO cell expressing mouse CD47
T4 sequence (receptor, looked up): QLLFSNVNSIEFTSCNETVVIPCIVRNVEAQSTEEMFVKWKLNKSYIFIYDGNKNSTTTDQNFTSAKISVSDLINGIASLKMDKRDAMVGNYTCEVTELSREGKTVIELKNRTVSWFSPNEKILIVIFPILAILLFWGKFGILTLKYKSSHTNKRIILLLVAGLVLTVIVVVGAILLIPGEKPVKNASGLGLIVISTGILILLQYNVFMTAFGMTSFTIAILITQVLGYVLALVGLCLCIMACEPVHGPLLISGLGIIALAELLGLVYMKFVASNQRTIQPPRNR
The assay is described as follows: flow cytometry on CHO cells expressing mouse CD47-GFP, binding percentage.

In assay [7] the target is T1, human CD47 expressed on cells (CD47 …). The assay can be described thus: flow cytometry blocking assay: 100 nM biotinylated SIRPa-Fc (blocked ligand) on DLD1 cells expressing CD47, frequency. (A flow cytometer gives signals particle by particle.)
The target is the same in assay [8]. The assay can be described thus: flow cytometry on DLD1 cells, IgG, MFI.
For assay [9] the target is unchanged. The assay is described as follows: IC50 (nM) Frequency as grade, blocking biotinylated SIRPa-Fc binding to DLD1 cells; legend +++: <1 nM.
Assay [10] has the same target. The assay can be described thus: flow cytometry on DLD1 cells, IgG, frequency.
The target is the same in assay [11]. The assay can be described thus: IC50 (nM) MFI as grade, blocking biotinylated SIRPa-Fc binding to DLD1 cells; legend +++: <1 nM.
The target is the same in assay [12]. The assay can be described thus: flow cytometry blocking assay: 100 nM biotinylated SIRPa-Fc (blocked ligand) on DLD1 cells expressing CD47, MFI.
For assay [13] the target is unchanged. The assay is described as follows: flow cytometry on human red blood cells, donor 2, MFI; EC50 (nM) table beside the legend.
The target in assay [14] is T5, biotin labelled polyhistidine tagged CD47 protein (Novoprotein, Cat#321) (human, UniProt Q08722 19-139, biotin labelled (site not stated)).
T5 construct: Bought protein; also called biotinylated CD47; biotinylated human CD47 protein; not shown: polyhistidine tag
The assay can be described thus: flow cytometry blocking assay: antibody mixed with biotinylated human CD47 protein; blocked ligand SIRPα on cells; binding percentage.

Assay [15] concerns the target T1, human CD47 expressed on cells (CD47 …). The assay can be described thus: flow cytometry on CD47 expressing CHO cells, MFI (FL-4).
Assay [16] addresses T3, CD47 protein (construct not stated; SPR …). The assay can be described thus: ELISA on CD47, OD450 against Log[M]; column headed KD beside the legend.
For assay [17], the target named is T1, human CD47 expressed on cells (CD47 …). The assay is described as follows: IC50 as grade, SIRPα blocking on Raji cells (second part of the table); legend +++: <1 nM.
Assay [18] shares this target. The assay is described as follows: flow cytometry on human platelets, donor 1, MFI.
Assay [19] has the same target. The assay can be described thus: flow cytometry on human red blood cells, donor 2, MFI.
The target is the same in assay [20]. The assay can be described thus: flow cytometry on human red blood cells, donor 1, MFI.
Assay [21] shares this target. The assay can be described thus: flow cytometry blocking assay on Raji cells, SIRPα is the blocked ligand, MFI.
The target is the same in assay [22]. The assay can be described thus: flow cytometry on human platelets, donor 2, MFI.

B1: Positive 1 (commercial anti-CD47 blocking antibody, eBioscience Cat#14-0479) (antibody, V domains shown)
VH: EVQLVESGGDLVKPGGSLKLSCAASGFTFSGYGMSWVRQTPDKRLEWVATITSGGTYTYYPDSVKGRFTISRDNAKNTLYLQIDSLKSEDTAIYFCARSLAGNAMDYWGQGTSVTVSS
VL: DIVMTQSPATLSVTPGDRVSLSCRASQTISDYLHWYQQKSHESPRLLIKFASQSISGIPSRFSGSGSGSDFTLSINSVEPEDVGVYYCQNGHGFPRTFGGGTKLEIK
notes: also called Pos; B6H12
With B1, the EC50 in assay [1] and in [3] was 0.05 to 1 nM throughout. Further, the IC50 in [2] is under 8 nM; in assay [5], 1 to 10 nM. In assay [4], the “Affinity by SPR” value is 10 to 40 nM. The binding result in [6] was “no binding (tested: about 0.4 ug/ml)”.

B2: ABU14 (IgG, chimeric version of the Fab) (antibody, V domains shown)
VH: EVQLQQSGPELVKPGASVKISCKASGYSFTNYHIHWVKQRPGQGLEWIGWIYPGSGNTKYNEKFKGMAILTADTSSSTAYMQLSSLTSEDSAVYYCARYDYDLYLHSWGQGTTVTVSS
VL: DIQINQSPSSLSASLGDTITITCHASQNINVWLSWYQQKPGNIPKLLIYKASNLHTGVPSRFSGSGSGTGFTLTISSLQPEDIATYYCQQGQSYPLTFGAGTKLEIK
Consider B2, for which the “IC50 (read off the curve)” value is about 0.8 nM in assay [7] and about 0.3 nM in assay [12]. Besides, the “EC50 (read off the curve)” value was about 0.4 nM in assay [8] and about 0.05 nM in assay [10]. Also, the half-maximal inhibitory concentration (IC50) in assay [9] and in [11] was under 1 nM throughout.

B3: ABU9 (IgG, chimeric version of the Fab) (antibody, V domains shown)
VH: EVQLQQSGPELVKPGASVKLSCKASGFTFTNYYIHWVKQRPGQGPEWIGWIYLGSGNTKYNEKFKGKATLTADTSSSTAYLQLSTLISEDSAVYYCARYDYDLYLDSWGQGTTVTVSS
VL: DIKMNQSPSSLSASLGDTITITCHASQNINVWLSWYQQKPGNIPKLLIYKASNLHTGVPSRFSGSGSGTGFTLTISSLQPEDIATYYCQQGQSYPLTFGAGTKLELK
With B3, the “IC50 (read off the curve)” value is about 0.8 nM in assay [7] and about 0.3 nM in assay [12]. The concentration for a half-maximal effect (EC50 (read off the curve)) in [8] is about 0.4 nM; in [10] it was about 0.05 nM. In addition, the IC50 in assay [9] and in assay [11] was under 1 nM in each case.

B4: ABU2 (antibody, V domains shown)
VH: QVQLQQPGAELVRPGASVKLSCKASGYTFTNYWMNWFKQRPEQGLEWIGRIDPYDSETLYNQKFKDKAILTVDKSSSTAYMQLSSLTSEDSAVYYCAGGGKGGFGYWGQGTLVTVSA
VL: DVLMTQTPLSLPVSLGDQASISCRSSQSIVYSNGNTYLEWYLQKPGQSPKLLIYKVSNRFSGVPDRFSGSGSGTDFTLKISRVEAEDLGVYYCFQGSHVPYTFGGGTKLEIK
notes: Murine hybridoma monoclonal antibody
On to B4, for which the EC50 in assay [1] is 0.05 to 1 nM; in [3] it was 0.05 to 1 nM; in assay [13] it was 0.25 nM. The IC50 in [2] was under 8 nM; in assay [5], 1 to 10 nM. Further, the “Affinity by SPR” value in [4] was 10 to 40 nM. The binding result in [6] was “no binding (tested: about 0.4 ug/ml)”.

B5: C-ABU2 (antibody, V domains shown)
VH: QVQLQQPGAELVRPGASVKLSCKASGYTFTNYWMNWFKQRPEQGLEWIGRIDPYDSETLYNQKFKDKAILTVDKSSSTAYMQLSSLTSEDSAVYYCAGGGKGGFGYWGQGTLVTVSA
VL: DVLMTQTPLSLPVSLGDQASISCRSSQSIVYSNGNTYLEWYLQKPGQSPKLLIYKVSNRFSGVPDRFSGSGSGTDFTLKISRVEAEDLGVYYCFQGSHVPYTFGGGTKLEIK
In the case of B5, in assay [14], the “IC50 (read off the curve)” value was about 3 nM. In addition, in assay [15], the concentration giving a half-maximal response (EC50 (read off the curve)) was about 1 nM.

B6: H-ABU2a (antibody, V domains shown)
VH: QVQLVQSGAEVKKPGASVKVSCKASGYTFTDFYINWVRQAPGQRLEWMGWIYLGSGNTKYNEKFKGRVTITRDTSASTAYMELSSLRSEDTAVYYCARREERGFAYWGQGTLVTVSS
VL: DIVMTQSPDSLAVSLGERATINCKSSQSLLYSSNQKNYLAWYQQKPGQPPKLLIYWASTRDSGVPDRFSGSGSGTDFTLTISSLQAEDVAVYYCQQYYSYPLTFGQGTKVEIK
As for B6, binding in assay [16] was put at a Kd of 1.6 nM.

B7: H-ABU2c (antibody, V domains shown)
VH: QVQLVQSGAEVKKPGASVKVSCKVSGYTFTDFYINWVRQAPGQRLEWMGWIYLGSGNTKYNEKFKGRVTITVDTSASTAYMELSSLRSEDTAVYYCARREERGFAYWGQGTLVTVSS
VL: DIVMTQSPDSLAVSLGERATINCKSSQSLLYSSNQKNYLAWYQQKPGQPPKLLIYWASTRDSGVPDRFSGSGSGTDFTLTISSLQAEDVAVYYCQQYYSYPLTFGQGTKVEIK
B7: in assay [16], the dissociation constant (Kd) came out at 1.5 nM. The Kd values of the last two molecules are within 1.5-fold of each other.

B8: H-ABU 11 (antibody, V domains shown)
VH: QVQLVQSGAEVKKPGASVKVSCKASGYTFTDFYINWVRQAPGQRLEWMGWIYLGSGNTKYNEKFKGRVTITRDTSASTAYMELSSLRSEDTAVYYCARREERGFAYWGQGTLVTVSS
VL: DIVMTQSPDSLAVSLGERATINCKSSQSLLSSSQKNYLAWYQQKPGQPPKLLIYWASTRDSGVPDRFSGSGSGTDFTLTISSLQAEDVAVYYCQQFYSYPLTFGQGTKVEIK
In turn, B8 yielded an IC50 in [17] of under 1 nM. Moreover, the “EC50 (read off the curve)” value is about 1 nM in assay [18], about 1 nM in assay [19], about 1 nM in [20] and about 0.9 nM in [22]. The “IC50 (read off the curve)” value in assay [21] was about 0.8 nM.

B9: H-ABU 8 (antibody, V domains shown)
VH: QVQLVQSGAEVKKPGASVKVSCKASGYTFTDNYINWVRQAPGQRLEWMGWVYLGSGNTKYNEKFKGRVTITRDTSASTAYMELSSLRSEDTAVYYCARREERGFAYWGQGTLVTVSS
VL: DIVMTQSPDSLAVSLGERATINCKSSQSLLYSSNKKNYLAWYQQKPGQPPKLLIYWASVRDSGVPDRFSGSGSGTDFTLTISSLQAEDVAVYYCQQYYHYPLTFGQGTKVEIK
In turn, B9 showed an IC50 in [17] of under 1 nM. In assay [21], the “IC50 (read off the curve)” value is about 0.2 nM.
